Assay results as given in patent publication US20230235080A1, “TROPHOBLAST CELL-SURFACE ANTIGEN-2 (TROP-2) ANTIBODIES” (Bionecure Therapeutics, Inc., priority 2020, published 2023).
Changes are numbered by the printed parent chain. Like-named read-outs stand apart in the source and are kept apart here.

Legend:
[1] = molecular target: T1, human Trop-2-ECD-6His fusion protein (human, UniProt P09758 27-274); assay: antigen binding ELISA on immobilized human Trop-2-ECD-6His
T1 construct: Expressed in a human 293 cell line; also called huTrop-2; human Trop-2 antigen
T1 sequence: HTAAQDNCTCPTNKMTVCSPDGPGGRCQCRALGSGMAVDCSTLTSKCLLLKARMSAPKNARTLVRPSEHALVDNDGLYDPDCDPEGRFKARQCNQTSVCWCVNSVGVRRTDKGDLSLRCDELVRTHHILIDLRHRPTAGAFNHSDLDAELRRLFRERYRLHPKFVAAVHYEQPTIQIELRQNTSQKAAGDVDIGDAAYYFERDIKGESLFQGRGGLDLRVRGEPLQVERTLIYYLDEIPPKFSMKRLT

[2] = molecular target: T1, human Trop-2-ECD-6His fusion protein; assay: BLI (Octet), antibody at 8 ug/ml, human Trop-2ECD-6His at 3.125-50 nM
Experimental: The binding affinity of the purified anti-Trop-2 IgGs to human Trop-2 protein were determined by Octet system based on Bio-Layer Interferometry (BLI) technique. BLI is a layer of molecules attached to the tip of an optic fiber which creates an interference pattern at the detector, any change in the number of molecules bound causes a measured shift in the pattern. Octet system enables real-time analysis for determination of affinity and kinetics from biomolecular interactions in 96-well microplates. […] A1X4 or A1,2X4 antibody was diluted and added to the assigned wells at a final concentration 8 µg/ml. The plate was put in the Octet system and assay was started. The data was analyzed using the Octet Data Acquisition Software (fortebio data analysis 10.0) to calculate an association rate constant Kon, a dissociation rate constant Koff, and a dissociation constant Kd (Kd = Koff/Kon).

[3] = molecular target: T2, human Trop-2 on Trop-2 positive cancer cells (human, UniProt P09758 27-323); assay: cell-based or functional assay
T2 sequence (looked up): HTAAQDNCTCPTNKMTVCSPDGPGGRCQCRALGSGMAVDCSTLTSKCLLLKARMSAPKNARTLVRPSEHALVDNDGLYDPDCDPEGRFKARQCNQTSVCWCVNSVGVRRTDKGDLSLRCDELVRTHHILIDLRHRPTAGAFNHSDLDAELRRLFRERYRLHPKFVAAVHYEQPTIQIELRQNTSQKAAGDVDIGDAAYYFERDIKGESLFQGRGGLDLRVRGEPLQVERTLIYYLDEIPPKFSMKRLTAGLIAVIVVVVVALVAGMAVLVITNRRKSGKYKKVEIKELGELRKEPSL

[4] = molecular target: T1, human Trop-2-ECD-6His fusion protein; assay: antigen binding ELISA on immobilized human Trop-2-ECD-6His; remark: listed apart in the source
[5] = molecular target: T2, human Trop-2 on Trop-2 positive cancer …; assay: cell-based or functional assay; remark: listed apart in the source
[6] = molecular target: T2, human Trop-2 on Trop-2 positive cancer …; assay: flow cytometry on MDA-MB-468 cells, MFI at 4 °C against the antibody concentration (about 400 to 10000 ng/ml); Kd (µg/ml) printed beside the legend
Experimental: Internalizationi and degradation of anti-Trop-2 antibodies was measured by flow cytometry. In this study, fluorescent-conjugated secondary antibodies were used to detect the primary antibodies left on after internalization.
Next, either hRS7, or A1X4, or A1,2X4 antibody was added to cells in FACS buffer at concentrations of 400, 1000, 3000, or 10000 ng/ml, respectively, and incubated for 30 minutes at 4° C. After incubation, the cells were washed three times with FACS buffer to removed unbound antibody. The cells were then incubated at 37° C. with 5% CO₂ for antibody internalization. After 2 hours, the cells were dissociated with Trypsin and stained with fluorescent-conjugated goat anti-human IgG secondary antibodies for 30 minutes on ice in dark before being analyzed using Beckman flow cytometry system. The fluorescent intensity and cell binding percentage at each time point were analyzed by Beckman flow cytometric software. The amount of anti-Trop-2 antibodies internalized into cells at each concentration was determined using the following formula: % internalization rate = 100 × (MFI₄°C- MFI₃₇°C) / MFI₄°C

[7] = molecular target: T2, human Trop-2 on Trop-2 positive cancer …; assay: cell-based or functional assay; remark: listed apart in the source
[8] = tested on: Trop-2 positive breast cancer cell line MDA-MB-468; assay: Internalization assay by flow cytometry (Example 2 protocol); type: cell-based, human; conditions: Table 9; second round of humanization of #118-2-5
Experimental: The chimeric IgG1 #118-2-5 and #125-1-5 were further evaluated by internalization assay using Trop-2 positive breast cancer cell line MDA-MB-468. MDA-MB-468 cells were seeded at 1×10^5 cell/well. Next, the chimeric or benchmark IgGs were added to cells in FACS buffer and incubated for 2 hours at 4° C. After incubation, the cells were washed to remove unbound antibody. The cells were then incubated at 37° C. After 2 hours, the cells were dissociated and stained with fluorescent-conjugated […] secondary antibodies for 30 minutes on ice in dark before being analyzed using Beckman flow cytometry system. The fluorescent intensity and cell binding percentage at each time point were analyzed by Beckman flow cytometric software. The amount of chimeric IgGs internalized into cells was determined using the following formula: % internalization rate = 100 × (MFI4°C - MFI37°C) / MFI4°C.

[9] = molecular target: T3, human Trop-2-ECD-6His fusion protein (Homo sapiens, UniProt P09758); assay: Antigen binding assay (ELISA) on immobilized Trop-2-ECD-6His
T3 construct: made in house; host or cells: human 293 cell line
T3 sequence (P09758 with tags, fused parts or gaps): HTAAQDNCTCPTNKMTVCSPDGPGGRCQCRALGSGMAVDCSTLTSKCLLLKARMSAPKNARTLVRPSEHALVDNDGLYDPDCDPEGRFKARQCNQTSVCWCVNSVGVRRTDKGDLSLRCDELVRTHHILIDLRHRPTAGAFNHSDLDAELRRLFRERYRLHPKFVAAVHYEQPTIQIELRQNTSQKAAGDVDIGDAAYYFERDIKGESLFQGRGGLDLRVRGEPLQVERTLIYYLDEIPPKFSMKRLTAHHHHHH

[10] = Table 10, humanized #125-1-5 antibodies

B1: benchmark antibody hRS7 (antibody, V domains shown)
VH: QVQLQQSGSELKKPGASVKVSCKASGYTFTNYGMNWVKQAPGQGLKWMGWINTYTGEPTYTDDFKGRFAFSLDTSVSTAYLQISSLKADDTAVYFCARGGFGSSYWYFDVWGQGSLVTVSS
VL: DIQLTQSPSSLSASVGDRVSITCKASQDVSIAVAWYQQKPGKAPKLLIYSASYRYTGVPDRFSGSGSGTDFTLTISSLQPEDFAVYYCQQHYITPLTFGAGTKVDIK
In the case of B1, the EC50 [1] is reported as 62 pM, the Kd [2] is reported as 780 pM and the koff [2] is reported as 0.000244 s⁻¹. The “Internalization rate (flow cytometry, MDA-MB-468 cells)” value [3] was 10.9%, the EC50 [4] was 90 pM and the “Internalization rate (flow cytometry, MDA-MB-468 cells)” value [5] was 23.9%. The Kd [6] was 0.78 µg/mL.

B2: A1X4-MMAE antibody-drug conjugate (antibody, V domains shown)
VH: QVQLQESGPGLVKPSETLSLTCTVSGFSLTSYGVNWIRQPPGKGLEWIGVMWAGGSTNYNSALMSRVTISVDTSKNQFSLKLSSVTAADTAVYYCARDENWDGAWFAYWGQGTLVTVSS
VL: DIVMTQSPDSLAVSLGERATINCKSSQSLLNSGTRKNYLAWYQQKPGQPPKLLISWASSRESGVPDRFSGSGSGTDFTLTISSLQAEDVAVYYCKQSYNLFTFGGGTKVEIKR
modifications: mc-vc-PABA-MMAE on the reduced antibody; chain and positions not stated
With B2 the “in vitro cytotoxicity IC50, Trop-2-high BxPC-3 cells” value [7] was < 1000 pM.

B3: A1,2X4-MMAE antibody-drug conjugate (antibody, V domains shown)
VH: B2 VH with V67L, V71K
VL: B2 VL
modifications: mc-vc-PABA-MMAE on the reduced antibody; chain and positions not stated
For B3, the “in vitro cytotoxicity IC50, all cells that express different levels of Trop-2” value [7] was < 1000 pM.

B4: HuA/Lu(X3): humanized #118-2-5, heavy chain HuA (SEQ ID NO: 23) with light chain Lu(X3) (SEQ ID NO: 36) (antibody, V domains shown)
VH: B2 VH
VL: DIVMTQSHKFISTSVGDRVSITCKASQDVDTAVAWYQQKPGQSPKLLIHWASTRHTGVPDRFTGGGSGTDFTLTLSNVQSEDLADYFCQQYSTFPWTFGGGTRLEIK
B4 showed an Internalization rate [8] of 13.22% and an EC50 ([9]; Table 8, second round of humanization of #118-2-5) of 450 pM.

B5: Hu(A1)/LuX: humanized #118-2-5, heavy chain Hu(A1) (SEQ ID NO: 29) with light chain LuX (SEQ ID NO: 27) (antibody, V domains shown)
VH: B2 VH
VL: DIVMTQSPDSLAVSLGERATINCKSSQSLLNSGTRKNYLAWYQQKPGQPPKLLIYWASSRESGVPDRFSGSGSGTDFTLTISSLQAEDVAVYYCKQSYNLFTFGGGTKVEIK
For B5, the Internalization rate [8] was 56.01%.

B6: humanized #125-1-5 Hu1/Lu5 (antibody, V domains shown)
VH: QVQLVQSGAEVKKPGASVKVSCKASGYTFTTYVIHWVRQAPGQRLEWMGYINPNNDGTKYNEKFKGRVTITRDTSASTAYMELSSLRSEDTAVYYCARPHFETHAMDYWGQGTLVTVSS
VL: DIQMTQSPSSLSASVGDRVTITCKASEDIFNRLAWYQQKPGKAPKLLLYGATSLETGVPSRFSGSGSGTDYTLTISSLQPEDFATYYCQQYWNTWTFGQGTKVEIK
For B6, the EC50 [9, 10] was 16 pM and the “Internalization rate (flow cytometry, MDA-MB-468 cells)” value [5] was 49.7%.

B7: humanized #125-1-5 Hu2/Lu6 (antibody, V domains shown)
VH: B6 VH with R38K, A40K, R44G, M48I
VL: B6 VL with L48I, Y49S, T69K
notes: Humanized antibody
With B7 the EC50 [1] was 18 pM and the “Internalization rate (flow cytometry, MDA-MB-468 cells)” value [5] was 14.1%.

B8: humanized #125-1-5 Hu4/Lu6 (antibody, V domains shown)
VH: B6 VH with V20M, M48I, V68A, I70L, R72S, T74K
VL: B6 VL with L48I, Y49S, T69K
notes: Humanized antibody
B8 was tested, and the EC50 [1] was 22 pM and the “Internalization rate (flow cytometry, MDA-MB-468 cells)” value [5] was 10.3%.

B9: humanized #125-1-5 Hu4/Lu5 (antibody, V domains shown)
VH: B6 VH with V20M, M48I, V68A, I70L, R72S, T74K
VL: B6 VL
notes: Humanized antibody
B9 was tested, and the EC50 [1] was 19 pM and the “Internalization rate (flow cytometry, MDA-MB-468 cells)” value [5] was 24.9%.

B10: humanized #125-1-5 Hu3/Lu6 (antibody, V domains shown)
VH: QVQLVQSGAEVKKPGASVKVSCKASGYTFTTYVIHWVRQAPGQRLEWMGYINPNNDGTKYNEKFKGKATLTSDKSSTTAYMEVRGLTSEDSAVYYCARPHFETHAMDYWGQGTLVTVSS
VL: B6 VL with L48I, Y49S, T69K
notes: Humanized antibody
B10 was tested, and the EC50 [1] was 45 pM and the “Internalization rate (flow cytometry, MDA-MB-468 cells)” value [5] was 7.5%.

B11: #125-1-5 mouse H14-4/L3-4: parental mouse #125-1-5 heavy/light chains H14-4/L3-4, comparator of the humanized IgGs (antibody, V domains shown)
VH: QIQLVQSGPELVKPGASVKMSCKASGYTFTTYVIHWVKQKPGQGLEWIGYINPNNDGTKYNEKFKGKATLISDKSSTTAYMEVRGLTSEDSAVYYCARPHFETHAMDYWGQGTSVTVSS
VL: DIQMTQSPSSFSVSLGDSVTITCKASEDIFNRLAWYQQKPGNAPRLLISGATSLETGVPSRFSGGGSGKEYTLSITSLQNEDVATYYCQQYWNTWTFGGGTKLEIK
In the case of B11, the EC50 [9, 10] is reported as 4 pM.

B12: humanized IgG #125-1-5 Hu3/Lu5 (antibody, V domains shown)
VH: B10 VH
VL: DIQMTQSPSSLSASVGDRVTITCKASEDIFNRLAWYQQKPGKAPKLLLYGATSLETGVPSRFSGSGSGTDYTLTISSLQPEDFATYYCQQYWNTWTFGQGTKVEIKR
notes: also called IgG Hu3/Lu5
B12 was tested, and the EC50 [1] was 12 pM and the “Internalization rate (flow cytometry, MDA-MB-468 cells)” value [5] was 14%.
